For assay [1], the target named is biotinylated human Her2 (HE2-H822R, Acro Biosystems) (human) (UniProt P04626). Briefly: BLI (Octet), Her2-biotin on streptavidin tip, Fab at 20 nM, 1:1 fit; the filing doubts the fit because the response was low.
The target is the same in assay [2]. Put plainly: deep screening, equilibrium fit.
Assay [3] shares this target. Put plainly: deep screening, equilibrium fit (column DS KD (M)).
Assay [4] has the same target. Briefly: flow cell equilibrium binding, ribosome-displayed scFv, 0.03-100 nM Her2-biotin and 100 nM AF532-streptavidin.
The target is the same in assay [5]. Put plainly: deep screening ('HER2affmat'), ribosome-displayed scFv on flow cell, 5 minutes of wash after 100 nM Her2-biotin:AF532-streptavidin.
The target is the same in assay [6]. Put plainly: flow cell kinetic dissociation, ribosome-displayed scFv, buffer wash after Her2-biotin/AF532-streptavidin.
Assay [7] has the same target. Briefly: deep screening, biphasic dissociation fit, phase 1.
For assay [8] the target is unchanged. Briefly: deep screening, equilibrium fit (column DS KD (M)). This is another data set of the same source.
Assay [9] shares this target. Briefly: deep screening, biphasic dissociation fit, phase 2.

B1: G98A Fab (Fab)
VH: MQVQLVQSGAEVKKPGESLKISCKGSGYSFTSYWIAWVRQMPGKGLEYMGLIYPGDSDTKYSPSFQGQVTISVDKSVSTAYLQWSSLKPSDSAVYFCARHDVAYCSSSNCAKWPEYFQHWGQGTLVTVSSGGGGSGGGGSGGGGSQSVLTQPPSVSAAPGQKVTISCSGSSSNIGNNYVSWYQQLPGTAPKLLIYGHTNRPAGVPDRFSGSKSGTSASLAISGFRSEDEADYYCASWDYTLSGWVFGGGTKLTVLG
VL: B1 VH
For B1, the Kd in assay [1] was determined as 46.9 nM.

B2: Her2_G98A scFv (scFv)
scFv: MQVQLVQSGAEVKKPGESLKISCKGSGYSFTSYWIAWVRQMPGKGLEYMGLIYPGDSDTKYSPSFQGQVTISVDKSVSTAYLQWSSLKPSDSAVYFCARHDVAYCSSSNCAKWPEYFQHWGQGTLVTVSSGGGGSGGGGSGGGGSQSVLTQPPSVSAAPGQKVTISCSGSSSNIGNNYVSWYQQLPGTAPKLLIYGHTNRPAGVPDRFSGSKSGTSASLAISGFRSEDEADYYCASWDYTLSGWVFGGGTKLTVLGYMASGAEFGSGGQKQAEEAAAKAAADAKAKAEADAKAAEEAAKKAAADAKKKAEA
As for B2, the Kd in [2] turned out to be 886 nM; in assay [3], 24 nM; in assay [4], 16.2 nM; in assay [8] it was 887 nM. In addition, the fluorescent intensity at the 5-minute wash step in assay [5] came to 190. The koff amounted to 0.000567 s⁻¹ in assay [6], 7.03e-05 s⁻¹ in assay [7] and 0.0134 s⁻¹ in assay [9].

The values are drawn from patent US20240425846A1.
